Here are results for three substances from PMC10606924, “Interactions of Nucleosomes with Acidic Patch-Binding Peptides: A Combined Structural Bioinformatics, Molecular Modeling, Fluorescence Polarization, and Single-Molecule FRET Study” (International Journal of Molecular Sciences, 2023).

In series [1] the test system is FAM-LANA1-22 (Kaposi's sarcoma-associated herpesvirus). Kind of series: fluorescence polarization. As to conditions: FP: 10 mM Tris-HCl pH 8.0, 0.2 mM EDTA, 5 mM 2-mercaptoethanol, 10 mM NaCl, 30 min incubation at 4 C, EMSA: 6% PAGE, 10 mM HEPES-Na pH 8.0, 0.2 mM EDTA. (In general: In fluorescence polarisation assays a small probe gives low polarisation when free and higher when bound to something large.)

Series [2] addresses nucleosome (H. sapiens canonical histone octamer on 147 bp Widom 603 DNA) (H. sapiens) (UniProt P04908). Kind of series: fluorescence polarisation; 100 nM FAM-LANA_(1-22) as tracer, nucleosome concentration varied by two-fold serial dilution, 30 min at +4 C; 10 mM TrisHCl pH 8.0, 200 uM EDTA, 5 mM 2-mercaptoethanol, 10 mM NaCl; simple direct binding model with identical, non-interacting sites.

Series [3] has as its system Cy3/Cy5-labeled mononucleosomes (603 DNA, 147 bp). Kind of series: Single-molecule FRET (spFRET) of nucleosome-peptide interactions. In kind it is biochemical, H. sapiens. The following applies: 10 μM peptide. The text has this:
Non-fluorescently labeled nuclesomal DNA fragments were obtained as follows. pUC57 plasmids containing eight repeats of the high-affinity 147 bp Widom 603 sequence were amplified in E. coli XL-10 stain and purified via alkaline lysis (see details in Supplementary Materials and Methods). The Widom 603 fragments were released via cleavage with EcoRV and separated from parent plasmid with polyethylene glycol precipitation in order to clear the vector backbone as described in [86]. Nucleosomal DNA fragments fluorescently labeled at the 35 and 112 bp positions were obtained following established protocols. […]
NCPs were reconstituted by mixing 147 bp Widom 603 DNA and histone octamers at a 1:1.15 molar ratio. […] Fluorescently labeled nucleosomes were detected by in-gel FRET using a Typhoon scanner (GE Healthcare, Chicago, IL, USA) with excitation at 532 nm laser and emission at 670 nm (FRET between Cy3 and Cy5) or 580 nm (Cy3 signal) (Supplementary Figure S5).
Single-particle FRET measurements were conducted with LSM710-Confocor3 laser scanning confocal microscope (Carl Zeiss, Jena, Germany) as described previously. […] To evaluate the level of background signal and reveal fluorescence bursts, spFRET data were analyzed using the FretBursts version 0.7.1 software. […]

As usually defined, the Kd is the constant that tells how readily two partners part at equilibrium. A low value points to tighter binding.

“Also recorded” adds a separate entry of the source.

For Widom 603 nucleosome, the Kd in series [1] worked out at 400 nM.

Consider “FAM-labeled LANA_(1-22) peptide (from UniProt Q9QR71 1-22)”, for which the Kd in series [2] is 400 nM. That is a sub-micromolar value.

Regarding “PNVRRSNRIRLKPLEYWRGERIDYQ [CENP-Cmotif, fragment of CENP-C protein (amino acids 710–734) from R. norvegicus]”, the “shift of EPR value distribution” value in series [3] (1 nM nucleosomes) is “shift of the EPR value distribution towards higher EPR values; also recorded: makes nucleosomes, on average, more compact”. For the same substance, the “effect on average nucleosome compactness, compared with LANA1-22” value in series [3] (spFRET) is listed as “higher than that of LANA1-22; also recorded: makes nucleosomes more compact than LANA1-22, on average”.
